The text below walks through data of patent US4959351A, “Crystal suspensions of insulin derivatives, processes for their preparation and their use” (Hoescht Aktiengesellschaft, priority 1983, dated 1990).

The data set can be described thus: Specific biological activity of the insulin substance used (I.U./mg). Conditions: as stated in the composition.
“Porcine insulin--Arg^B31 --Arg^B32 --OH [Insulin-Arg^B31 -Arg^B32 -OH from pigs]” registered a specific activity of 27.0 I.U./mg.

Substance human insulin--Arg^B31 --Arg^B32 --OH returned a specific activity of 27.0 I.U./mg.

“human insulin--Arg^B31 --OH [Human insulin-Arg^B31 -OH]” gave a specific activity of 27.5 I.U./mg.

In turn, “human insulin--Arg^B31 -Lys--^B32 --OCH3 [Human insulin-Arg^B31 -Lys^B31 -OCH3]” displayed a specific activity of 27.0 I.U./mg. As for “human insulin-B30-choline ester [human insulin-(B30)-choline ester]”, the figure is 28.0 I.U./mg.
